Measurements reported in patent publication US8465945B2, “Method for production and use of mite group 1 proteins” (Merck Patent GmbH, priority 1999, dated 2013).

Experiments:
[1] = system: IgE from mite-allergic or normal human sera; assay: ELISA, binding of IgE from human sera to coated Der f 1 proteins or mite extracts, detected with FcεR1α-biotin
[2] = system: IgE from pooled mite-allergic human sera; assay: Monoclonal Capture ELISA (Example 8B, Table 7); type: binding
Description: Assays were carried out as follows. A microtiter plate as described in Example 5 was coated overnight at 4° C. with 100 ng/well of anti-Der f 1 protein monoclonal antibody 6A8, denoted herein as anti-Der f 1 MAb 6A8, provided by Dr. Martin Chapman. The plate was washed in the manner described above. The following proteins were then added to wells, having been diluted in Assay Buffer in a 2-fold dilution series, from 0.75 to 50 ng/well: Heska native Derf1, P. pastoris-expressed PDerf1303b, and E. coli-expressed PDerf1303c. After incubation for 1 hour at room temperature, plates were washed as described in Example 5. Then 100 μl per well of a 1:1000 dilution in Assay Buffer of biotinylated anti-Der f 1 monoclonal antibody 4C1, also denoted anti-Der f 1 MAb 4C1, provided by Dr. Martin Chapman, was added for 1 hour at room temperature. Plates were washed, streptavidin-HRP conjugate was added, and plates were developed as described in Example 5.
B. The Der f 1 proteins described in Example 8B were reacted as described in Example 6 with a pool of serum samples collected from 16 mite-allergic human patients.

[3] = system: IgE from mite-allergic dog sera; assay: ELISA, binding of IgE from dog sera to coated Der f 1 proteins or mite extracts, detected with FcεR1α-biotin
Description: Native or recombinant Der f 1 proteins in 100 μl CBC buffer (50 mM sodium carbonate, pH 9.6) were coated onto wells (100 ng per well) of Immulon II microtiter plates (available from Dynex Technologies, Chantilly, Va.) by incubation at 4° C., covered, overnight. Excess fluid was removed and wells were blocked with 200 μl Assay Buffer (4% fetal calf serum (available from Summit Laboratories, Fort Collins, Colo.) in phosphate buffered saline (PBS, recipe in Sambrook, ibid.), plus 0.05% Tween-20 (available from Sigma, St. Louis, Mo.)) for one hour at room temperature. Plates were then washed for 4 cycles on an automatic plate washer (Ultrawash, available from Dynatech Laboratories) using PBS with 0.05% Tween-20. […] Control wells were treated identically except that no serum was added. Plates were then washed as described above. Biotinylated human IgE receptor alpha chain (FcεR1α-biotin) (100 μl of 1.3 ng/ml) prepared as described in U.S. Pat. No. 5,945,294, ibid., was added and incubated for one hour at room temperature. After this incubation, plates were washed as described above. Streptavidin-horseradish peroxidase conjugate (0.5 mg/ml, available from KPL Labs, Gaithersburg, Md.) was added at a 1:5000 dilution in Assay Buffer for one hour at room temperature, after which plates were washed as described above. TMB Peroxidase substrate system, 2 part (available from KPL Labs, #0-76-00), added at 100 μl per well, was used according to the manufacturer's directions. The color reaction was allowed to proceed until good color development was reached (about 10-15 min); then the reaction was stopped with 100 μl per well of 1 M phosphoric acid. Bound IgE was determined by measuring absorbance (Optical Density, or OD) at 450 nm (nanometers) using an ELISA plate reader (such as Spectramax”, Molecular Devices, Sunnyvale, Calif.). Background OD readings in the control wells were subtracted from all numbers. Results are reported in Tables 1, 2 and 3 as OD multiplied by 1000. OD numbers greater than 100 are considered to be positive for a reaction with IgE. P. pastoris-expressed proteins are denoted in the Tables as Pichia expressed proteins.

B1: Chapman native Derf1: Native purified Der f 1 protein, purified in the laboratory of Martin Chapman (protein)
chain: TSACRINSVNVPSELDLRSLRTVTPIRMQGGCGSCWAFSGVAATESAYLAYRNTSLDLSEQELVDCASQHGCHGDTIPRGIEYIQQNGVVEERSYPYVAREQRCRRPNSQHYGISNYCQIYPPDVKQIREALTQTHTAIAVIIGIKDLRAFQHYDGRTIIQHDNGYQPNYHAVNIVGYGSTQGDDYWIVRNSWDTTWGDSGYGYFQAGNNLMMIEQYPYVVIM
[1]; Assay Number 1, serum human 1916
  OD, bound IgE: 17 OD multiplied by 1000
[1]; Assay Number 1, serum human3848
  OD, bound IgE: 2336 OD multiplied by 1000
[1]; Assay Number 1, serum human 3958
  OD, bound IgE: 1261 OD multiplied by 1000
[1]; Assay Number 1, serum human 3960
  OD, bound IgE: 1024 OD multiplied by 1000
[1]; Assay Number 1, serum human 3961
  OD, bound IgE: 326 OD multiplied by 1000
[1]; Assay Number 1, serum human 3987
  OD, bound IgE: 1216 OD multiplied by 1000
[1]; Assay Number 1, serum human 4289
  OD, bound IgE: 287 OD multiplied by 1000
[1]; Assay Number 1, serum human 4467
  OD, bound IgE: 615 OD multiplied by 1000
[1]; Assay Number 1, serum human 5207
  OD, bound IgE: 2669 OD multiplied by 1000
[1]; Assay Number 1, serum human pool
  OD, bound IgE: 1531 OD multiplied by 1000
[1]; Assay Number 2, serum Heska human B
  OD, bound IgE: 0 OD multiplied by 1000
[1]; Assay Number 2, serum Heska human C
  OD, bound IgE: 0 OD multiplied by 1000
[1]; Assay Number 2, serum Heska human D
  OD, bound IgE: 0 OD multiplied by 1000
[1]; Assay Number 2, serum Heska human E
  OD, bound IgE: 2 OD multiplied by 1000
[1]; Assay Number 2, serum Heska human F
  OD, bound IgE: 0 OD multiplied by 1000
[1]; Assay Number 2, serum Heska human G
  OD, bound IgE: 0 OD multiplied by 1000
[1]; Assay Number 2, serum Heska human H
  OD, bound IgE: 0 OD multiplied by 1000
[1]; Assay Number 2, serum Heska human I
  OD, bound IgE: 0 OD multiplied by 1000
[1]; Assay Number 2, serum Heska human J
  OD, bound IgE: 0 OD multiplied by 1000
[1]; Assay Number 2, serum Heska human K
  OD, bound IgE: 0 OD multiplied by 1000
[1]; Assay Number 2, serum Heska human L
  OD, bound IgE: 0 OD multiplied by 1000
[1]; Assay Number 2, serum Heska human M
  OD, bound IgE: 0 OD multiplied by 1000
[1]; Assay Number 2, serum Heska human N
  OD, bound IgE: 373 OD multiplied by 1000
[1]; Assay Number 2, serum Heska human O
  OD, bound IgE: 0 OD multiplied by 1000
[1]; Assay Number 2, serum Heska human P
  OD, bound IgE: 0 OD multiplied by 1000
[1]; Assay Number 2, serum Heska human Q
  OD, bound IgE: 0 OD multiplied by 1000
[1]; Assay Number 2, serum Heska human R
  OD, bound IgE: 0 OD multiplied by 1000
[1]; Assay Number 2, serum human 1916
  OD, bound IgE: 8 OD multiplied by 1000
[1]; Assay Number 2, serum human 3848
  OD, bound IgE: 1726 OD multiplied by 1000
[1]; Assay Number 2, serum human 3958
  OD, bound IgE: 822 OD multiplied by 1000
[1]; Assay Number 2, serum human 3960
  OD, bound IgE: 522 OD multiplied by 1000
[1]; Assay Number 2, serum human 3961
  OD, bound IgE: 169 OD multiplied by 1000
[1]; Assay Number 2, serum human 3987
  OD, bound IgE: 846 OD multiplied by 1000
[1]; Assay Number 2, serum human 4289
  OD, bound IgE: 173 OD multiplied by 1000
[1]; Assay Number 2, serum human 4467
  OD, bound IgE: 353 OD multiplied by 1000
[1]; Assay Number 2, serum human 5207
  OD, bound IgE: 2171 OD multiplied by 1000
[1]; Assay Number 2, serum human pool
  OD, bound IgE: 1236 OD multiplied by 1000
[1]; Table 3, sera 429, PDerf1303b preparation number A166-26, PDerf1223b preparation 1000-7
  OD, bound IgE: 152 OD multiplied by 1000
[1]; Table 3, sera 1916, PDerf1303b preparation number A166-26, PDerf1223b preparation 1000-7
  OD, bound IgE: 14 OD multiplied by 1000
[1]; Table 3, sera 3848, PDerf1303b preparation number A166-26, PDerf1223b preparation 1000-7
  OD, bound IgE: 1033 OD multiplied by 1000
[1]; Table 3, sera 3958, PDerf1303b preparation number A166-26, PDerf1223b preparation 1000-7
  OD, bound IgE: 1067 OD multiplied by 1000
[1]; Table 3, sera 3960, PDerf1303b preparation number A166-26, PDerf1223b preparation 1000-7
  OD, bound IgE: 738 OD multiplied by 1000
[1]; Table 3, sera 3961, PDerf1303b preparation number A166-26, PDerf1223b preparation 1000-7
  OD, bound IgE: 221 OD multiplied by 1000
[1]; Table 3, sera 3987, PDerf1303b preparation number A166-26, PDerf1223b preparation 1000-7
  OD, bound IgE: 865 OD multiplied by 1000
[1]; Table 3, sera 4467, PDerf1303b preparation number A166-26, PDerf1223b preparation 1000-7
  OD, bound IgE: 489 OD multiplied by 1000
[1]; Table 3, sera 5207, PDerf1303b preparation number A166-26, PDerf1223b preparation 1000-7
  OD, bound IgE: 1836 OD multiplied by 1000
[1]; Table 3, sera human pool, PDerf1303b preparation number A166-26, PDerf1223b preparation 1000-7
  OD, bound IgE: 1114 OD multiplied by 1000
[1]; Table 6, pool of sera from 16 mite-allergic human patients, 6.2 ng protein per well
  OD, bound IgE: 17 OD
[1]; Table 6, pool of sera from 16 mite-allergic human patients, 12.5 ng protein per well
  OD, bound IgE: 116 OD
[1]; Table 6, pool of sera from 16 mite-allergic human patients, 25 ng protein per well
  OD, bound IgE: 215 OD
[1]; Table 6, pool of sera from 16 mite-allergic human patients, 50 ng protein per well
  OD, bound IgE: 488 OD
[1]; Table 6, pool of sera from 16 mite-allergic human patients, 100 ng protein per well
  OD, bound IgE: 581 OD
[1]; Table 6, pool of sera from 16 mite-allergic human patients, 200 ng protein per well
  OD, bound IgE: 584 OD
[2]; 0.39 ng protein per well
  OD, Monoclonal Capture ELISA: 1480 OD
[2]; 0.78 ng protein per well
  OD, Monoclonal Capture ELISA: 2186 OD
[2]; 1.55 ng protein per well
  OD, Monoclonal Capture ELISA: 2447 OD
[2]; 3.1 ng protein per well
  OD, Monoclonal Capture ELISA: 2597 OD
[2]; 6.25 ng protein per well
  OD, Monoclonal Capture ELISA: 2620 OD
[2]; 12.5 ng protein per well
  OD, Monoclonal Capture ELISA: 2483 OD
[2]; 25 ng protein per well
  OD, Monoclonal Capture ELISA: 2249 OD
[3]; Assay Number 1, serum dog pool
  OD, bound IgE: 341 OD multiplied by 1000
[3]; Assay Number 1, serum dog-1
  OD, bound IgE: 6 OD multiplied by 1000
[3]; Assay Number 1, serum dog-2
  OD, bound IgE: 1408 OD multiplied by 1000
[3]; Assay Number 1, serum dog-3
  OD, bound IgE: 3125 OD multiplied by 1000
[3]; Assay Number 2, dog sera pool A 146
  OD, bound IgE: 220 OD multiplied by 1000
[3]; Assay Number 2, dog sera pool KS338
  OD, bound IgE: 19 OD multiplied by 1000
